According to paper PMC406421 (Nuclear Receptor, 2004):
One block for each molecule: values may come before it.

Key:
[1] = biological target: GAL4-DBD/DRIP205 receptor interaction domain fusion protein (human) (UniProt Q15648); assay: two-hybrid
[2] = biological target: GAL4-DBD/DRIP205 receptor interaction domain fusion protein (human, UniProt Q15648 527-774); assay: two-hybrid
Sequence of GAL4-DBD/DRIP205 receptor interaction domain fusion protein (Q15648 527-774): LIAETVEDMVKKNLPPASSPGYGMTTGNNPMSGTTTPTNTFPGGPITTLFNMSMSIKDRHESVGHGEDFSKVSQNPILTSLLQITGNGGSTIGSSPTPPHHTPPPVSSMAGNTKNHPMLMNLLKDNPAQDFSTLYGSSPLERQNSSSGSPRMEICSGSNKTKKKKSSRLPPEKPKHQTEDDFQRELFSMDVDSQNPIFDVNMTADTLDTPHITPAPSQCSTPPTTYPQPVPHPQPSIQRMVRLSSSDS

Sequence of GAL4-DBD/DRIP205 receptor interaction domain fusion protein (human) (Q15648 527-774): as above

fold induction of the interaction by CITCO over Me2SO (two-hybrid reporter) [1]: 100 fold
Molecule: VP16-AD/CAR-LBD fusion protein of CAR(SV2) (from UniProt Q14994-2 105-348) (domain or fragment)

fold induction of the interaction by CITCO over Me2SO (two-hybrid reporter) [2]: 2 fold
B1: VP16-AD/CAR-LBD fusion protein of reference CAR(SV1) (domain or fragment, human, UniProt Q14994-2 105-348, looked up)
chain: QLSKEQEELIRTLLGAHTRHMGTMFEQFVQFRPPAHLFIHHQPLPTLAPVLPLVTHFADINTFMVLQVIKFTKDLPVFRSLPIEDQISLLKGAAVEICHIVLNTTFCLQTQNFLCGPLRYTIEDGARVGFQVEFLELLFHFHGTLRKLQLQEPEYVLLAAMALFSPDRPGVTQRDEIDQLQEEMALTLQSYIKGQQRRPRDRFLYAKLLGLLAELRSINEAYGYQIQHIQGLSAMMPLLQEICS
